Measured values published in PMC9728165, “Improving Catalytic Efficiency and Changing Substrate Spectrum for Asymmetric Biocatalytic Reductive Amination” (Journal of Microbiology and Biotechnology, 2019).

Tests used:
purified protein [1] = substrate: O=C(O)C(=O)Cc1ccccc1; test: purified protein; format: biochemical, Halalkalibacterium halodurans; settings: reductive amination, 500 mM ammonia, 100 microM NADH, glycine-KCl-KOH pH 10.4, 25°C
purified protein [2] = substrate: N[C@@H](Cc1ccccc1)C(=O)O; test: purified protein; format: biochemical, Halalkalibacterium halodurans; settings: oxidative deamination, 2 mM NAD+, 50 mM glycine-KCl-KOH pH 10.4, 25°C

B1: PheDH (Halalkalibacterium halodurans C-125) (protein)
chain: MLTKTPTVTSTLDIFTEMAEHEQVLFCHDPSSGLRAIIAIHDTTLGPALGGCRMYPYQTTEDALRDVLRLSKGMTQKCAAADVDFGGGKAVIIGDPAKDKSANLFRAFGQFVESLNGRFYTGTDMGTTMEDFVHALKETNGIVGIPKEYGGSGDSSVPTAKGVINSLKAISQVVLKDKQFSGRTYAIQGLGKVGFKVAEELLKEGNDLYVSDLQESLPLRLQQLGQRLGRHVEILHGDEIYEAAADVFVPCAQGAILNDATIARLKVKAIAGAANNQLEAERHGQMLHDQGIWFAPDYIVNSGGLIQVADELYGSNEKRVLSKTNAIYDTILEIFHQAERHHITTLQAANQLCERRIRERARRNNFFVNRIRPKWNLRK
Purified protein [1]
  Km: 0.337 ± 0.05 mM
  kcat: 10.296 ± 0.0167 s⁻¹
Purified protein [2]
  Km: 6.88 ± 0.41 mM
  kcat: 2.4847 ± 0.0035 s⁻¹

B2: PheDH (Halalkalibacterium halodurans C-125; E113D/N276L) (protein)
chain: MLTKTPTVTSTLDIFTEMAEHEQVLFCHDPSSGLRAIIAIHDTTLGPALGGCRMYPYQTTEDALRDVLRLSKGMTQKCAAADVDFGGGKAVIIGDPAKDKSANLFRAFGQFVDSLNGRFYTGTDMGTTMEDFVHALKETNGIVGIPKEYGGSGDSSVPTAKGVINSLKAISQVVLKDKQFSGRTYAIQGLGKVGFKVAEELLKEGNDLYVSDLQESLPLRLQQLGQRLGRHVEILHGDEIYEAAADVFVPCAQGAILNDATIARLKVKAIAGAANLQLEAERHGQMLHDQGIWFAPDYIVNSGGLIQVADELYGSNEKRVLSKTNAIYDTILEIFHQAERHHITTLQAANQLCERRIRERARRNNFFVNRIRPKWNLRK
Purified protein [1]
  Km: 0.812 ± 0.01 mM
  kcat: 39.0852 ± 0.0667 s⁻¹
Purified protein [2]
  Km: 5.14 ± 0.3 mM
  kcat: 11.26 ± 0.055 s⁻¹

B3: PheDH (Halalkalibacterium halodurans C-125; N276L) (protein)
chain: MLTKTPTVTSTLDIFTEMAEHEQVLFCHDPSSGLRAIIAIHDTTLGPALGGCRMYPYQTTEDALRDVLRLSKGMTQKCAAADVDFGGGKAVIIGDPAKDKSANLFRAFGQFVESLNGRFYTGTDMGTTMEDFVHALKETNGIVGIPKEYGGSGDSSVPTAKGVINSLKAISQVVLKDKQFSGRTYAIQGLGKVGFKVAEELLKEGNDLYVSDLQESLPLRLQQLGQRLGRHVEILHGDEIYEAAADVFVPCAQGAILNDATIARLKVKAIAGAANLQLEAERHGQMLHDQGIWFAPDYIVNSGGLIQVADELYGSNEKRVLSKTNAIYDTILEIFHQAERHHITTLQAANQLCERRIRERARRNNFFVNRIRPKWNLRK
Purified protein [1]
  Km: 1.05 ± 0.1 mM
  kcat: 31.321 ± 0.0383 s⁻¹
Purified protein [2]
  Km: 8.71 ± 0.2 mM
  kcat: 8.8435 ± 0.0687 s⁻¹

B4: PheDH (Halalkalibacterium halodurans C-125; E113D) (protein)
chain: MLTKTPTVTSTLDIFTEMAEHEQVLFCHDPSSGLRAIIAIHDTTLGPALGGCRMYPYQTTEDALRDVLRLSKGMTQKCAAADVDFGGGKAVIIGDPAKDKSANLFRAFGQFVDSLNGRFYTGTDMGTTMEDFVHALKETNGIVGIPKEYGGSGDSSVPTAKGVINSLKAISQVVLKDKQFSGRTYAIQGLGKVGFKVAEELLKEGNDLYVSDLQESLPLRLQQLGQRLGRHVEILHGDEIYEAAADVFVPCAQGAILNDATIARLKVKAIAGAANNQLEAERHGQMLHDQGIWFAPDYIVNSGGLIQVADELYGSNEKRVLSKTNAIYDTILEIFHQAERHHITTLQAANQLCERRIRERARRNNFFVNRIRPKWNLRK
Purified protein [1]
  Km: 7.607 ± 0.2 mM
  kcat: 25.1237 ± 0.0167 s⁻¹
Purified protein [2]
  Km: 8.28 ± 0.4 mM
  kcat: 12.193 ± 0.005 s⁻¹
